Source: patent US20160136236A1

Key:
[1] = target: wild type (WT) human low density lipoprotein receptor (LDLR) (human) (UniProt P01130); assay: flow cytometry competition; 0.5 ug/mL LDL-BODIPY with 100 ug/mL unlabeled LDL on HEK293 cells transfected with LDLR mRNA
[2] = target: wild type (WT) human low density lipoprotein receptor (LDLR) (human) (UniProt P01130); assay: flow cytometry competition; 0.5 ug/mL LDL-BODIPY with 1 ug/mL unlabeled LDL on HEK293 cells transfected with LDLR mRNA
[3] = target: wild type (WT) human low density lipoprotein receptor (LDLR) (human) (UniProt P01130); assay: flow cytometry competition; 0.5 ug/mL LDL-BODIPY with 500 ug/mL unlabeled LDL on HEK293 cells transfected with LDLR mRNA
[4] = target: wild type (WT) human low density lipoprotein receptor (LDLR) (human) (UniProt P01130); assay: flow cytometry competition; 0.5 ug/mL LDL-BODIPY with 0 ug/mL unlabeled LDL on HEK293 cells transfected with LDLR mRNA
[5] = target: wild type (WT) human low density lipoprotein receptor (LDLR) (human) (UniProt P01130); assay: flow cytometry competition; 0.5 ug/mL LDL-BODIPY with 0.01 ug/mL unlabeled LDL on HEK293 cells transfected with LDLR mRNA
[6] = target: wild type (WT) human low density lipoprotein receptor (LDLR) (human) (UniProt P01130); assay: flow cytometry competition; 0.5 ug/mL LDL-BODIPY with 0.5 ug/mL unlabeled LDL on HEK293 cells transfected with LDLR mRNA
[7] = target: wild type (WT) human low density lipoprotein receptor (LDLR) (human) (UniProt P01130); assay: flow cytometry competition; 0.5 ug/mL LDL-BODIPY with 0.1 ug/mL unlabeled LDL on HEK293 cells transfected with LDLR mRNA
[8] = target: wild type (WT) human low density lipoprotein receptor (LDLR) (human) (UniProt P01130); assay: flow cytometry competition; 0.5 ug/mL LDL-BODIPY with 10 ug/mL unlabeled LDL on HEK293 cells transfected with LDLR mRNA

wild type (WT) human low density lipoprotein receptor (LDLR) (human), sequence (P01130 22-860 limits assumed): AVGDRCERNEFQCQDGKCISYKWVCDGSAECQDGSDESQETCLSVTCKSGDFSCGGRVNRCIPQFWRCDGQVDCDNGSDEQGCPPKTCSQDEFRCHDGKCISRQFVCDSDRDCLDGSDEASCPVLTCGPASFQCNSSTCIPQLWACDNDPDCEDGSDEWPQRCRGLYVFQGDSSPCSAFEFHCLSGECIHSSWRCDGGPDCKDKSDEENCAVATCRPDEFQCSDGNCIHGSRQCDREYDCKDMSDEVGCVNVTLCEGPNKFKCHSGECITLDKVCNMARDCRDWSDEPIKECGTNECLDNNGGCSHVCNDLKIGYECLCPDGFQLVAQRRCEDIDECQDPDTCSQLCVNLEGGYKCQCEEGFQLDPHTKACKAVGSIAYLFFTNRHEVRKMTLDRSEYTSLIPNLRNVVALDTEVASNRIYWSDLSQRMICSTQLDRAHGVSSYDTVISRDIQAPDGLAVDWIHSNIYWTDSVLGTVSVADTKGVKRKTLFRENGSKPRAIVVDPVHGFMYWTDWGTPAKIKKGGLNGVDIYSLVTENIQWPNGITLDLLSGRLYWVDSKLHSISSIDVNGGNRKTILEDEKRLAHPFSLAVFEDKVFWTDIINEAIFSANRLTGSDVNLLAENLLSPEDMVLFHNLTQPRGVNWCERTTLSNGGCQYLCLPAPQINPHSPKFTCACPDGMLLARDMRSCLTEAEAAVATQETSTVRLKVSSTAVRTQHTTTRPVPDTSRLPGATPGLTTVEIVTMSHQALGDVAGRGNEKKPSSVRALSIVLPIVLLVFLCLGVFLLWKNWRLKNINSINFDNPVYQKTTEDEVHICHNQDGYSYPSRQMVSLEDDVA

unlabeled LDL (low density lipoprotein), P04114 28-4563
Labeled cells detected (%) [1]: 3.2% | Labeled cells detected (%) [2]: 76% | Labeled cells detected (%) [3]: 0.9% | Labeled cells detected (%) [4]: 100% | Labeled cells detected (%) [5]: 97.7% | Labeled cells detected (%) [6]: 64.1% | Labeled cells detected (%) [7]: 59% | Labeled cells detected (%) [8]: 48.4%
